Measured values reported in article PMC7498065, “Isolation of antigen-specific, disulphide-rich knob domain peptides from bovine antibodies” (PLoS Biology, 2020).
Where two headings read alike, the source gives them in different places.

B1: PGT121-K136: human Fab PGT121 with the K136 knob domain inserted into CDRH3, flanked by TEV protease sites (antibody)
VH: QMQLQESGPGLVKPSETLSLTCSVSGASISDSYWSWIRRSPGKGLEWIGYVHKSGDTNYSPSLKSRVNLSLDTSKNQVSLSLVAATAADSGKYYCARTLHGRRIYGSENLYFQGTCPDNYREVDGCDPYDCCLTTWCTNSYCTRYIENLYFQGSEWFTYFYMDVWGNGTQVTVSS
VL: QSVLTQPPDISVAPGETARISCGEKSLGSRAVQWYQHRAGQAPSLIIYNNQDRPSGIPERFSGSPDSPFGTTATLTITSVEAGDEADYYCHIWDSRVPTKWVFGGGTTLTVL
B2: PGT121-K149: human Fab PGT121 with the K149 knob domain inserted into CDRH3, flanked by TEV protease sites (antibody)
VH: QMQLQESGPGLVKPSETLSLTCSVSGASISDSYWSWIRRSPGKGLEWIGYVHKSGDTNYSPSLKSRVNLSLDTSKNQVSLSLVAATAADSGKYYCARTLHGRRIYGSENLYFQGSCPDGFSYRSWDDFCCPMVGRCLAPRNGSENLYFQGSEWFTYFYMDVWGNGTQVTVSS
VL: QSVLTQPPDISVAPGETARISCGEKSLGSRAVQWYQHRAGQAPSLIIYNNQDRPSGIPERFSGSPDSPFGTTATLTITSVEAGDEADYYCHIWDSRVPTKWVFGGGTTLTVL

What was measured:
C5 = C5 (Homo sapiens, UniProt P01031); experiment: Steady state FRET binding assay, AF647-labelled PGT121 knob fusion proteins binding to C5-Tb (KD app); conditions: C5-Tb 1 nM
Complement component C5 = Complement component C5 (Homo sapiens, UniProt P01031); experiment: Biacore SPR single-cycle kinetics of PGT121 Fab-knob domain fusion proteins binding to C5; conditions: for Mean kon: C5 amine-coupled on CM5 chip, analyte 1.37 nM-1 µM in HBS-EP; for Mean Stoichiometric ratio at 1 µM: SPR, analyte 1 µM
Method: For PGT121 fusion proteins, flow cells were activated using a minimal immobilisation protocol: EDC/NHS was mixed at 1:2 ratio (flow rate, 10 μL/min; contact time, 30 s). C5, at 1 μg/mL in pH 4.5 sodium-acetate buffer, was immobilized on flow cell 2 only (flow rate, 10 μL/min; contact time, 420 s). Finally, ethanolamine was applied to both flow cells (flow rate, 10 μL/min; contact time, 420 s).
For knob domain peptides, flow cells were activated using a standard immobilisation protocol: EDC/NHS was mixed at 1:1 ratio (flow rate, 10 μL/min; contact time, 30 s). C5, at 1 μg/mL in pH 4.5 sodium-acetate buffer, was immobilized on flow cell 2 only (flow rate, 10 μL/min; contact time, 420 s). Finally, ethanolamine was applied to both flow cells (flow rate, 10 μL/min; contact time, 420 s). […] For the PGT121-K149 fusion protein and K149 knob domain, the same immobilisation protocols were used but with a 750 ng/mL solution of C5, instead of 1 μg/mL.
One-micromolar stock solutions of the analytes (PGT121 knob domain fusion proteins and free knob domain peptides) were prepared in HBS-EP buffer. A series of six 3-fold dilutions of each stock solution was prepared in the same buffer. The result was 7 solutions for each analyte, at concentrations ranging from 1 μM down to 1.37 nM. A high flow rate of 40 μL/min was used, with a contact time of 230 s and a dissociation time of 1,800 s for knob domain peptides and 10,000 s for PGT121 knob domain fusion proteins. For the PGT121-K149 fusion protein and K149 knob domain, the flow rate was further increased to 100 μL/min. Binding to the reference surface was subtracted, and the data were fitted to a single-site binding model using Biacore evaluation software. Data were inspected for evidence of mass transport limitation using the flow-rate–independent component of the mass transfer constant (tc).

[1] = 2 hour incubation, experiment n2, read-out: KD app
[2] = 2 hour incubation, experiment n3, read-out: KD app
[3] = 2 hour incubation, geomean of n=3, read-out: Geomean KD app
[4] = 24 hour incubation, experiment n2, read-out: KD app
[5] = 24 hour incubation, experiment n3, read-out: KD app
[6] = 24 hour incubation, geomean of n=3, read-out: Geomean KD app

Chain of C5 (P01031 19-673 limits assumed): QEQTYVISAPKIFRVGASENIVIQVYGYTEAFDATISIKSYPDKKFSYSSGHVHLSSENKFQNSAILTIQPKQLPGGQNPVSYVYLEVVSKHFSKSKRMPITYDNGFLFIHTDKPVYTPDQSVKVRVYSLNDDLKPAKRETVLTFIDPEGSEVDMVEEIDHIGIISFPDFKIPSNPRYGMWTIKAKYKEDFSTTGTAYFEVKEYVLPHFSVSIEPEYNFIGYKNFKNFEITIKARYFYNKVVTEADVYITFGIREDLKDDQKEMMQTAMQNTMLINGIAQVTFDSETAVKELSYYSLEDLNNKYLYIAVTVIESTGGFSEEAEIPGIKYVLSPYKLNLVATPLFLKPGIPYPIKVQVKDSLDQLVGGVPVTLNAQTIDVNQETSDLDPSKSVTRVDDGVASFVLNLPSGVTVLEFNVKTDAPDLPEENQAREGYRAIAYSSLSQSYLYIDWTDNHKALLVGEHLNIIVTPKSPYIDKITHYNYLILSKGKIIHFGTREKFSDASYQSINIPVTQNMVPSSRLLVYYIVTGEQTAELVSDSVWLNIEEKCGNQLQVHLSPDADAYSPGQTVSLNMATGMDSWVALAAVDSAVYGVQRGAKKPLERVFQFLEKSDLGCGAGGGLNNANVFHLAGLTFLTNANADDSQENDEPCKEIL
Chain of C5 (P01031 678-1676 limits assumed): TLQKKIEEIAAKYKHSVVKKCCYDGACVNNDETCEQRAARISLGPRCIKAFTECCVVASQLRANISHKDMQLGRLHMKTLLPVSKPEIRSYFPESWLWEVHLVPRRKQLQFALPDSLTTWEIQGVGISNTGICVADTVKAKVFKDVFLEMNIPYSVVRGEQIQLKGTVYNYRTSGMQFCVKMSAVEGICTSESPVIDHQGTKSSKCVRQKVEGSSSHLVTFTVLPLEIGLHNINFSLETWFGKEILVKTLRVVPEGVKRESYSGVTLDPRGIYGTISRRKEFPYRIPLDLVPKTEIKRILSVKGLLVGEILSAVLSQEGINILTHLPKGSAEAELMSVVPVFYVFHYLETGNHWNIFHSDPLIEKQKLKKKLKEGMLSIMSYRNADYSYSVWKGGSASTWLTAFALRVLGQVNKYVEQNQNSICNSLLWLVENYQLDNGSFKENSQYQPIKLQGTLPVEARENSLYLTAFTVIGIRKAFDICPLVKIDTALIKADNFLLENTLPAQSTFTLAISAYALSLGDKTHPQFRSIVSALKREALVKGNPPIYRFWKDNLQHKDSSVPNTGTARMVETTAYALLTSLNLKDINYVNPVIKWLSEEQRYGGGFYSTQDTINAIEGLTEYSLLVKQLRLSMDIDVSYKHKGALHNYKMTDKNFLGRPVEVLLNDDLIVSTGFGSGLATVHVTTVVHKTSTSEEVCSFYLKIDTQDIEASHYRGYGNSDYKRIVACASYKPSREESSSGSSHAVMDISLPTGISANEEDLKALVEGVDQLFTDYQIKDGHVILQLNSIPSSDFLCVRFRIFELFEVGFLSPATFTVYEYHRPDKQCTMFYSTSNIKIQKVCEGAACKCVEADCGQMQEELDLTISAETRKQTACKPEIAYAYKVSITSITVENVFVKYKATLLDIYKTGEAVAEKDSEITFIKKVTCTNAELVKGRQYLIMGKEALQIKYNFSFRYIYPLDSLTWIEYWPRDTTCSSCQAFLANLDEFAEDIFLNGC
Chain of Complement component C5 (P01031 19-673 limits assumed): as the sequence (P01031 19-673 limits assumed) above
Chain of Complement component C5 (P01031 678-1676 limits assumed): as the sequence (P01031 678-1676 limits assumed) above

Molecule	Kd (C5; [1])	Kd (C5; [2])	Kd (C5; [3])	Kd (C5; [4])	Kd (C5; [5])	Kd (C5; [6])	Mean kon (Complement component C5; 1:1 model, mean of n=3)	Mean Stoichiometric ratio at 1 µM (Complement component C5; mean of n=3)	Rmax (Complement component C5; occasion n=1)	Stoichiometric ratio at 1 µM (Complement component C5; occasion n=1)	kon (Complement component C5; occasion n=1)	Kd (Complement component C5; occasion n=1, read-out: KD)	Rmax (Complement component C5; occasion n=2)	Stoichiometric ratio at 1 µM (Complement component C5; occasion n=2)	kon (Complement component C5; occasion n=2)	Kd (Complement component C5; occasion n=2, read-out: KD)	Rmax (Complement component C5; occasion n=3)	Stoichiometric ratio at 1 µM (Complement component C5; occasion n=3)	kon (Complement component C5; occasion n=3)	Kd (Complement component C5; occasion n=3, read-out: KD)	further results
B1	0.0463 µM	0.115 µM	0.073 µM	0.0234 µM	0.0581 µM	0.0398 µM	4760 M⁻¹ s⁻¹	0.8	38.9 RU	0.82	5480 M⁻¹ s⁻¹	< 0.00182 µM	38.4 RU	0.8	3520 M⁻¹ s⁻¹	< 0.00284 µM	40.4 RU	0.9	5280 M⁻¹ s⁻¹	< 0.00189 µM	Kd (Complement component C5; SPR single-cycle kinetics, 1:1 model, mean of n=3, read-out: Mean KD): < 0.00219 µM; off rate (koff) (Complement component C5; exceeded the limit for koff determination by Biacore): < 1e-05 s⁻¹
B2	0.0576 µM	0.0301 µM	0.0393 µM	0.0906 µM	0.0249 µM	0.0659 µM	3750 M⁻¹ s⁻¹	0.5	13.00 RU	0.5	5270 M⁻¹ s⁻¹	0.283 µM	10.00 RU	0.5	3840 M⁻¹ s⁻¹	0.425 µM	10.00 RU	0.4	2150 M⁻¹ s⁻¹	0.842 µM	Kd (C5; 2 hour incubation, experiment n1, read-out: KD app): 0.0349 µM; Kd (C5; 24 hour incubation, experiment n1, read-out: KD app): 0.127 µM; Mean koff (Complement component C5; SPR single-cycle kinetics, 1:1 model, mean of n=3, koff capped at 1.00E-05 s^-1): 0.00164 s⁻¹; koff (Complement component C5; occasion n=1): 0.00149 s⁻¹; koff (Complement component C5; occasion n=2): 0.00162 s⁻¹; koff (Complement component C5; occasion n=3): 0.00181 s⁻¹
